Experimental data published in PMC7331980, “Dynamic rotation of the protruding domain enhances the infectivity of norovirus” (PLoS Pathogens, 2020).

Experiments:
[1] = biological target: the molecule itself; experiment: cryo-EM structure; single-particle cryo-EM at 200 kV (JEM2200FS); purified particles suspended in DMEM; icosahedral reconstruction
[2] = biological target: the molecule itself; experiment: cryo-EM structure; single-particle analysis (RELION) of MNoV-1 VLPs stored in DMEM; three types of particles reconstructed

Protein | binding result [1] | binding result [2]
VP1 capsid protein of murine norovirus type 1 (MNoV-1), as the capsid of infectious particles (natural protein, also called MNoV-1 infectious particles; MNoV-1 particles; copies: 180) MRMSDGAAPKANGSEASGQDLVPAAVEQAVPIQPVAGAALAAPAAGQINQIDPWIFQNFVQCPLGEFSISPRNTPGEILFDLALGPGLNPYLAHLSAMYTGWVGNMEVQLVLAGNAFTAGKVVVALVPPYFPKGSLTTAQITCFPHVMCDVRTLEPIQLPLLDVRRVLWHATQDQEESMRLVCMLYTPLRTNSPGDESFVVSGRLLSKPAADFNFVYLTPPIERTIYRMVDLPVIQPRLCTHARWPAPVYGLLVDPSLPSNPQWQNGRVHVDGTLLGTTPISGSWVSCFAAEAAYKFQSGTGEVATFTLIEQDGSAYVPGDRAAPLGYPDFSGQLEIEVQTETTKTGDKLKVTTFEMILGPTTNADQAPYQGRVFASVTAAASLDLVDGRVRAVPRSIYGFQDTIPEYNDGLLVPLAPPIGPFLPGEVLLRFRTYMRQIDTADAAAEAIDCALPQEFVSWFASNAFTVQSEALLLRYRNTLTGQLLFECKLYNEGYIALSYSGSGPLTFPTDGIFEVVSWVPRLYQLASVGSLATGRMLKQ | binds | –
VP1 capsid protein of murine norovirus type 1 (MNoV-1), as virus-like particles (natural protein, UniProt Q80J94 1-541, looked up, Major capsid protein VP1 of murine norovirus type 1 (MNoV-1); Formed three types of particles: one large (T = 4) and two small (T = 3, resting and rising P domain conformations), so no single copy number; also called MNoV-1 VLPs; VLPs of MNoV-1; source: baculovirus expression system, purified (CsCl equilibrium ultracentrifugation), stored in DMEM) MRMSDGAAPKANGSEASGQDLVPAAVEQAVPIQPVAGAALAAPAAGQINQIDPWIFQNFVQCPLGEFSISPRNTPGEILFDLALGPGLNPYLAHLSAMYTGWVGNMEVQLVLAGNAFTAGKVVVALVPPYFPKGSLTTAQITCFPHVMCDVRTLEPIQLPLLDVRRVLWHATQDQEESMRLVCMLYTPLRTNSPGDESFVVSGRLLSKPAADFNFVYLTPPIERTIYRMVDLPVIQPRLCTHARWPAPVYGLLVDPSLPSNPQWQNGRVHVDGTLLGTTPISGSWVSCFAAEAAYKFQSGTGEVATFTLIEQDGSAYVPGDRAAPLGYPDFSGQLEIEVQTETTKTGDKLKVTTFEMILGPTTNADQAPYQGRVFASVTAAASLDLVDGRVRAVPRSIYGFQDTIPEYNDGLLVPLAPPIGPFLPGEVLLRFRTYMRQIDTADAAAEAIDCALPQEFVSWFASNAFTVQSEALLLRYRNTLTGQLLFECKLYNEGYIALSYSGSGPLTFPTDGIFEVVSWVPRLYQLASVGSLATGRMLKQ | – | binds
